# Source: the RNAGym collection of RNA variant scans (doi:10.1073/pnas.2313332121)
# B1: TPR t1 (parent)
# chain: GACCAAUCUGCCCUCAGAGCUCGAGAACAUCUUCGGAUGCAGAGGAGGCAGGCUUCGGUGGCGCGAUAGCGCCAACGUCCUCAACCUCCAAUGCAUCCCACCACAUGAUGAUGCCUGAAGAGCCUUGGUUUUUUG
# Variants of: B1
# Assay: polymerase ribozyme fitness, log enrichment relative to wild type (log ratio); higher = more active; in vitro selection for triplet polymerase activity
# In short: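 Frozen incubation at −7 °C formed the core of a single, triplicate in vitro selection round applied to PCR-built, transcribed mutant libraries of each subunit of a heterodimeric triplet polymerase ribozyme. Extended constructs were gel-excised, captured with streptavidin beads and amplified by RT-PCR, and input and output libraries were Illumina-sequenced with a filter of ≥10 input reads and ≥1 read per output. Fitness is the logarithm of genotype enrichment relative to wild-type enrichment, with inverse-variance-weighted replicate averaging, and the logarithm is base 2.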
row,Variant,polymerase ribozyme fitness (log ratio)
1,A5G C15U C49U C62A C123A,-2.06
2,C4A C12A C86G G120U G128C,-1.61
3,C4U C56U,-0.85
4,A5G C104U G117C U130G,-3.77
5,C4U C49U C73G A121C,0.746
6,C4A C13U C15G A37C G113A A121C,-6.02
7,A5C C8G A26U,-1.68
8,C4G G61A U87G,-2.28
9,A5G C8G,-0.847
10,A5C A26U C62U,-4.3
11,A5C C89A A111C,-3.6
12,C4U C11U A18G C34U C73G C124G,-5.4
13,C4A A29G C88A,-3.39
14,C4A C13U C40A G52A C104U,-2.23
15,A5C A26G C88U U116C U129A,-6.24
16,C4A G60A,-0.949
17,A5G C49A C53U C85A G135U,-3.84
18,A5C A74C,-1.06
19,C3U U7G A111U,-1.66
20,C4U U81A,-1.77
21,C4G U9G A41G,-1.21

row,Variant,polymerase ribozyme fitness (log ratio)
1,C4G C8G C11A U14G C124U,-0.919
2,C4U G69A C89U C123G,-3.15
3,C4G G44A A46U U59C,-3.73
4,A5G C62A G117C,-4.86
5,C4U A5U C31G G45U U54A A68U G110A C114U,-6.24
6,C4A G63A,-1.65
7,A5G G42U C115U,-1.79
8,C4G G51U G120U,-4.56
9,C3U G47A G60A C85G C123U,-2.64
10,C4U A6G C13G A83G,-1.95
11,C4U C76G C114U U129A,-4.95
12,C4U G42U U59A,-2.49
13,A5G G36U G61A A111C A119C,-2.68
14,A5G A6C A43G C72U,-2.46
15,A5G G10A C15A G23C U32G C64A G128C U130C,-6.17
16,C4G U32C G45U,-3.28
17,C4U G17C G48A G69C G120C,-4.5
18,C4G G44C C62U,-2.44
19,C4G U9C G57A G63C C79A A84C C89U,-4.8
20,A5C C40A C64U C89U C102U U106A,-7.21
21,A5G A43C G44C G52C C73U U109A C114U C115A,-6.36

row,Variant,polymerase ribozyme fitness (log ratio)
1,A5G C56G,-0.49
2,C4G U54A G60C,-1.88
3,C4U C70G,-2.23
4,A5C U78C C101U,-1.23
5,C4U A16C C64U,-4.16
6,A5C G51C G77A C80G,-0.996
7,A5C C12A C73U,-0.891
8,A5C G63A U81A,-2.31
9,C4U A43G G47U C53U G61U,-3.38
10,A5G C13A C20U U129C,-4.45
11,C4U C13U G42A G69U G77A A90U C104U,-0.867
12,A5C G48C U78A C115A,-2.4
13,A5C U7C A29G G71A C89U G93C,-4.81
14,A5G C104A G113C,-4.37
15,A5G A27U A111G,-3.24
16,C4U A16G C49U G69U G113U,-2.65
17,C4A C13A G17A C22U A27G A46C G52C,-6.56
18,A5G C72A,0.0113
19,C4U G48U G52U A90U C124G,-1.92
20,C4U G36U C73U G127A,-2.05
21,A5G A18G G44C G48C U55C U59G G69U G117U,-5.43

row,Variant,polymerase ribozyme fitness (log ratio)
1,C4A A46U C53G U130C,-2.39
2,C4U G63U,-1.66
3,C3U G71U A121G U125A,1.49
4,A5G A111G G122U,-2.04
5,A5G C15G U32A G63U U112C A119U,-5.37
6,C3U U125A,-1.04
7,A5G A29U G48C U112G,-4.65
8,C4G U7G C8G G71A C98G A103C C114A G122U,-5.04
9,A5C C22G C56G C123U,-4.43
10,C3U U112C,1.51
11,C4U C11G C12A G19C C62G,-4.71
12,C4G C13U C53U A68G C115G A121U,-1.92
13,A5C C56G C80U,-1.77
14,C3U U112G C114A,-3.78
15,C3U U78C A105C C124U,-1.78
16,A5G C88A A91C C114G A121C,-0.389
17,C4A C115U G120A U131A,-5.05
18,C4G C13A,-3.23
19,C4G C13G,-3.83
20,C4G A18C A46G A83U G128A,-5.74
